# Laboratory results taken from the supplement of paper PMC9233669.
# Fewer inactive variants are shown than the library holds.
# Tests used:
# biotinyl-Met-oxazolone = test: self-aminoacylation, catalytic enhancement (BMO) (fold over background); higher = more active; k-Seq, kA / k0A0; sequences stand for … in GGGAAUGGAUCCACAUCUACGAAUUC…UUCACUGCAGACUUGACGAAGCUG
# Outline: (§1)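 The uncatalyzed rate is the low-activity peak of a bimodal Gaussian fit, and catalytic enhancement is median kA divided by it. The kA values came from pseudo-first-order fits, with 1000 bootstraps, of per-sequence fraction reacted measured by streptavidin capture, triplicate qPCR and Illumina sequencing. Mutagenized RNA pools with a 21-nt variable region (0.43 μM) were reacted with each biotinyl-aminoacyl-oxazolone at 2–1250 μM in 50 μL HEPES/NaCl/KCl/MgCl2/CaCl2 buffer with 5% acetonitrile, pH 6.9–7.0, for 90 minutes at room temperature.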
# biotinyl-Trp-oxazolone = test: self-aminoacylation, catalytic enhancement (BWO) (fold over background); higher = more active; k-Seq, kA / k0A0; sequences stand for … in GGGAAUGGAUCCACAUCUACGAAUUC…UUCACUGCAGACUUGACGAAGCUG
# Outline: as §1
# biotinyl-Phe-oxazolone = test: self-aminoacylation, catalytic enhancement (BFO) (fold over background); higher = more active; k-Seq, kA / k0A0; sequences stand for … in GGGAAUGGAUCCACAUCUACGAAUUC…UUCACUGCAGACUUGACGAAGCUG
# Outline: as §1
# biotinyl-Val-oxazolone = test: self-aminoacylation, catalytic enhancement (BVO) (fold over background); higher = more active; k-Seq, kA / k0A0; sequences stand for … in GGGAAUGGAUCCACAUCUACGAAUUC…UUCACUGCAGACUUGACGAAGCUG
# Outline: as §1
# biotinyl-Ile-oxazolone = test: self-aminoacylation, catalytic enhancement (BIO) (fold over background); higher = more active; k-Seq, kA / k0A0; sequences stand for … in GGGAAUGGAUCCACAUCUACGAAUUC…UUCACUGCAGACUUGACGAAGCUG
# Outline: as §1
# biotinyl-Leu-oxazolone = test: self-aminoacylation, catalytic enhancement (BLO) (fold over background); higher = more active; k-Seq, kA / k0A0; sequences stand for … in GGGAAUGGAUCCACAUCUACGAAUUC…UUCACUGCAGACUUGACGAAGCUG
# Outline: as §1
Sequence,self-aminoacylation (biotinyl-Met-oxazolone),self-aminoacylation (biotinyl-Trp-oxazolone),self-aminoacylation (biotinyl-Phe-oxazolone),self-aminoacylation (biotinyl-Val-oxazolone),self-aminoacylation (biotinyl-Ile-oxazolone),self-aminoacylation (biotinyl-Leu-oxazolone)
AAGUUUGCUAAUAGUCGGAAU [Fam3.1 aminoacylation ribozyme variant],1.5,1.18,1.54,1.41,1.37,1.41
CUACUUCAAUCGAUCGGUCUG [Fam1A.1 aminoacylation ribozyme variant],0.707,0.977,0.776,0.754,0.687,0.634
AUUAACCUGGUCAUCGAGUGU [Fam2.1 aminoacylation ribozyme variant],3.72,4.67,5.48,2.61,2.33,4.39
UUUCACCUAGGACAUCGGGUG [Fam2.2 aminoacylation ribozyme variant],3.39,4.64,26.8,3.19,3,3.31
AAGGUUGCUAAUUGUCGCAAG [Fam3.1 aminoacylation ribozyme variant],1.36,2.85,1.4,1.41,1.56,1.14
AUUCACCUAGCUCAUGGGGUG [Fam2.2 aminoacylation ribozyme variant],5.15,4.56,32.8,2.8,2.97,5.64
AUUCGCCUAGGUCAUCGGGUU [Fam2.2 aminoacylation ribozyme variant],14.1,10.8,75.6,7.13,8.6,20.5
AUUACCCUGAUCAUCGAGGGA [Fam2.1 aminoacylation ribozyme variant],1.02,2.33,0.999,1.21,1.09,1.87
CUACUCCAAACACUCGGUCUG [Fam1A.1 aminoacylation ribozyme variant],0.93,1.52,1.15,0.962,1.12,1.03
AUUCAUCUAGGUCAUAGGGUG [Fam2.2 aminoacylation ribozyme variant],2.63,2.83,10.1,1.87,2,3.39
AUUCAUUUAGGUCAUCGGGUG [Fam2.2 aminoacylation ribozyme variant],5.48,5.6,45.6,3.33,3.25,6.72
AUUACCCUGGUCAUCGAGGGC [Fam2.1 aminoacylation ribozyme variant],1.77,1.12,1.09,1.24,1.31,1.56
AUUCCCCUGGUCGUCGAGUGA [Fam2.1 aminoacylation ribozyme variant],1.42,1.52,6.18,1.33,1.48,1.71
CCACACUUCAAGUAAUCGUUC [Fam1B.1 aminoacylation ribozyme variant],0.613,0.552,0.886,0.801,0.628,0.705
AUUAUUCUGGUCAUCGAGUGA [Fam2.1 aminoacylation ribozyme variant],5.31,7.13,22.9,3.12,3.4,6.25
AUUCACCUCGGUCAUCGGGCG [Fam2.2 aminoacylation ribozyme variant],3.37,2.32,19.5,3.43,2.49,3.62
AUUCACGUAGGUGAUCGGGUG [Fam2.2 aminoacylation ribozyme variant],3.98,3.33,20.3,3.52,2.91,4.12
AAGUUUGCCAAUAGUCGCGAG [Fam3.1 aminoacylation ribozyme variant],1.96,3.77,11.6,2.09,1.61,2.25
GCACACUUCCAGCAAUCGGUC [Fam1B.1 aminoacylation ribozyme variant],1.55,2.11,1.1,2.31,2.01,1.73
AUUUACCUACGUCAUCGGGUG [Fam2.2 aminoacylation ribozyme variant],4.54,4.65,32.2,3.17,2.56,6.25
AUUCACCUACGUCAUCCGGUG [Fam2.2 aminoacylation ribozyme variant],5.94,7.01,46.7,3.84,4.29,8.48
AUUCACAUAGGCCAUCGGGUG [Fam2.2 aminoacylation ribozyme variant],4.86,4.23,34.7,3.41,3.23,5.85
CUACUUCAAACUAUGGGUCUG [Fam1A.1 aminoacylation ribozyme variant],0.789,0.592,0.588,0.813,0.917,0.922
AAGCUUGCUAAUCGUCGCAAG [Fam3.1 aminoacylation ribozyme variant],1.55,2.85,2.14,1.45,1.85,1.65
GUUACCCUUGUCAUCGAGUGA [Fam2.1 aminoacylation ribozyme variant],8.39,10.7,48.1,4.44,4.41,8.14
UCACACUUCAAGCACUCGGUC [Fam1B.1 aminoacylation ribozyme variant],0.873,0.771,0.873,1.32,0.94,0.927

Sequence,self-aminoacylation (biotinyl-Met-oxazolone),self-aminoacylation (biotinyl-Trp-oxazolone),self-aminoacylation (biotinyl-Phe-oxazolone),self-aminoacylation (biotinyl-Val-oxazolone),self-aminoacylation (biotinyl-Ile-oxazolone),self-aminoacylation (biotinyl-Leu-oxazolone)
AAGUUUGCUAAUUGUCGCAUG [Fam3.1 aminoacylation ribozyme variant],1.18,1.49,1.11,1.07,0.982,1.32
CCACUUCAAAGAAUCGGUCUG [Fam1A.1 aminoacylation ribozyme variant],1.04,8.92,11.4,1.13,1.15,1.32
CUACUUCGAACAAGCGGUCUG [Fam1A.1 aminoacylation ribozyme variant],0.624,0.528,0.721,0.64,0.727,0.9
CUACUUCAGUCAAUCGGUCUG [Fam1A.1 aminoacylation ribozyme variant],0.848,0.463,0.793,0.807,0.565,0.667
AUUACCCUGGUCAUCGAAUGA [Fam2.1 aminoacylation ribozyme variant],1.07,0.908,0.974,1.06,1,1.08
AUCCAACUAGGUCAUCGGGUG [Fam2.2 aminoacylation ribozyme variant],8.53,8.01,80.9,4.93,5.82,9.99
AAUCUCCUAGGUCAUCGGGUG [Fam2.2 aminoacylation ribozyme variant],6.93,5.91,35.1,4.51,4.3,6.83
CUACGUCAAACAAUCGGUCAG [Fam1A.1 aminoacylation ribozyme variant],0.917,0.909,0.761,0.797,0.855,1.12
ACUCACCUAGGUCGUCGGGUG [Fam2.2 aminoacylation ribozyme variant],2.56,3.42,6.16,2.4,2.58,2.25
CUACACUUCAAGCAAUCGGUU [Fam1B.1 aminoacylation ribozyme variant],1.47,7.05,9.78,1.27,1.29,1.46
AAGUUUGCUAAUAGUGGCACG [Fam3.1 aminoacylation ribozyme variant],0.636,0.733,0.682,0.689,0.684,0.622
CCACAUUUCAAGCAUUCGGUC [Fam1B.1 aminoacylation ribozyme variant],1.65,1.56,1.3,1.96,1.92,1.64
CAGUUUGCUAAUAGACGCAAG [Fam3.1 aminoacylation ribozyme variant],0.814,1.61,1.08,0.858,0.91,0.895
AUUUACCUAGGUCAUUGGGUG [Fam2.2 aminoacylation ribozyme variant],3.54,3.11,19.7,2.26,2.34,3.79
AAGUUUCCUAAUAGUCGCGAG [Fam3.1 aminoacylation ribozyme variant],2.04,2.04,3.66,2.48,2.47,2.26
CCGCACUUCAAUCAAUCGGUC [Fam1B.1 aminoacylation ribozyme variant],1.26,28.7,39.7,1.62,1.27,2.03
UUUACCCUGGGCAUCGAGUGA [Fam2.1 aminoacylation ribozyme variant],4.18,5.06,10.4,2.83,2.3,4.84
ACCCACCUAGGUCAUCGGGUG [Fam2.2 aminoacylation ribozyme variant],5.93,6.03,54,5.64,5.07,5.88
CCACACUUCAAGCAAUCCGUG [Fam1B.1 aminoacylation ribozyme variant],3.21,2.78,26.9,2.47,2.79,5.32
CCAAACUUCAAGCAAUCGUUC [Fam1B.1 aminoacylation ribozyme variant],0.66,0.803,0.813,0.93,0.743,0.621
AUGCUUGCUAAUAGUCGCAAG [Fam3.1 aminoacylation ribozyme variant],1.61,1.99,3.19,1.32,1.81,1.33
CCACACUUCAAGACAUCGGUC [Fam1B.1 aminoacylation ribozyme variant],0.914,0.762,0.815,0.896,1,0.879
CUUCUUCAAACAACCGGUCUG [Fam1A.1 aminoacylation ribozyme variant],0.98,0.846,0.852,0.949,1.11,0.961
CCACGCUUCAAGCAGUCGGUC [Fam1B.1 aminoacylation ribozyme variant],1.03,0.91,1,1.33,0.755,0.887
AUUCACCUAGGCCGUCGGGUG [Fam2.2 aminoacylation ribozyme variant],1.94,2.11,17.1,2.3,1.87,2.74
